Experimental data taken from the supplement of paper PMC10065799, “High-throughput profiling of sequence recognition by tyrosine kinases and SH2 domains using bacterial peptide display” (eLife, 2023).

Key:
[1] = tested on: AncSZ; assay: phosphorylation enrichment, bacterial display (enrichment ratio); higher = better substrate or ligand; peptides without Tyr show the background
[2] = molecular target: EPHB1 (UniProt P54762); assay: as above
[3] = molecular target: EPHB2 (UniProt P29323); assay: as above
Chain of EPHB2 (P29323 whole entry, looked up): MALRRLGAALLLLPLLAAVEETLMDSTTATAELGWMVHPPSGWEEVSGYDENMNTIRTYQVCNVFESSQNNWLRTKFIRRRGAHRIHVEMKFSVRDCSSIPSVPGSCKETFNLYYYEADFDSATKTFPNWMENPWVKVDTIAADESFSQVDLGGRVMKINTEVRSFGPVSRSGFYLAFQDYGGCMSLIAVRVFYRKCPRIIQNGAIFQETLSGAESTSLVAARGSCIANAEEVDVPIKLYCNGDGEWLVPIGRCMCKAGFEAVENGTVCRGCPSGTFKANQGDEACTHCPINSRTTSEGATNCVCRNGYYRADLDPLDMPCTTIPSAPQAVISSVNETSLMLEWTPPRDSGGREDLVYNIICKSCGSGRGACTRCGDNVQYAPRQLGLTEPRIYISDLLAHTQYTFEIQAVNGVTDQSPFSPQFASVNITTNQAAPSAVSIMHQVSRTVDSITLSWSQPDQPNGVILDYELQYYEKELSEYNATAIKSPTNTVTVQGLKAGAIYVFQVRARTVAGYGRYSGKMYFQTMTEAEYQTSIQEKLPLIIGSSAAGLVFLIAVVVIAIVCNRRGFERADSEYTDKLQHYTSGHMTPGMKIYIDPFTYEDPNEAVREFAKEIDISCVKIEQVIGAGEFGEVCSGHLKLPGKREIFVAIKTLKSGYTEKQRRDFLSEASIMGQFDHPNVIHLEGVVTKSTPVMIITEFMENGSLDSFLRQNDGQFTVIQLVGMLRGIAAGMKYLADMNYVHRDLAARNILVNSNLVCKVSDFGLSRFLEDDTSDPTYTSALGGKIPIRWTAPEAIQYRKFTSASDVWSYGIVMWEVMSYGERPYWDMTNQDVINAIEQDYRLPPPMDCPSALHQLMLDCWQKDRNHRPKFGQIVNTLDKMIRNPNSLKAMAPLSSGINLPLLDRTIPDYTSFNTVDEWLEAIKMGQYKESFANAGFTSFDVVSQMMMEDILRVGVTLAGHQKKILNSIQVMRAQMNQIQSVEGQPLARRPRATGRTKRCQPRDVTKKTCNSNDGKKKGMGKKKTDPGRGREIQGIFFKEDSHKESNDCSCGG

[4] = molecular target: FGFR1 (UniProt P11362); assay: as above
Chain of FGFR1 (P11362 whole entry, looked up): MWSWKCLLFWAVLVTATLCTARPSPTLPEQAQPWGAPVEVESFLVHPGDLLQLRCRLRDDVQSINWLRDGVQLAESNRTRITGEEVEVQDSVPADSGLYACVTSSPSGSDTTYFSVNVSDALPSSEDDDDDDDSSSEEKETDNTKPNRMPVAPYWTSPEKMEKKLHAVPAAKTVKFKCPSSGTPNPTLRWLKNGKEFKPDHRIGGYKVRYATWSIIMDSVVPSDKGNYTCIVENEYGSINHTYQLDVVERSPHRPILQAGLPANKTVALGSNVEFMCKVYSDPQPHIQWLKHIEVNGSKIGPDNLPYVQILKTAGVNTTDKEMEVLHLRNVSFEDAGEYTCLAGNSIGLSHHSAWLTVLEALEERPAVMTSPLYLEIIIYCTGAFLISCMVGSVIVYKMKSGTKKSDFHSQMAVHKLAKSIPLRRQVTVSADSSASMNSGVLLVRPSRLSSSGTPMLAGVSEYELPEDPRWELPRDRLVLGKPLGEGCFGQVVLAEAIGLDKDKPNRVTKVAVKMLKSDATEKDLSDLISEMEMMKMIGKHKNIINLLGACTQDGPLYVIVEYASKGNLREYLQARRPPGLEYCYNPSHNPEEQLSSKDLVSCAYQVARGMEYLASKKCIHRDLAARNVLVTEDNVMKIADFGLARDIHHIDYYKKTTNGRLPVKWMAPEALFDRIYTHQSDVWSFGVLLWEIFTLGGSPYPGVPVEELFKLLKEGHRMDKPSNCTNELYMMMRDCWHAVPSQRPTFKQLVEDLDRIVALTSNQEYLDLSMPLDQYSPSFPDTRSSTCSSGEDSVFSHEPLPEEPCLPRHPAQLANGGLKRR

[5] = molecular target: FGFR3 (UniProt P22607); assay: as above
Chain of FGFR3 (P22607 whole entry, looked up): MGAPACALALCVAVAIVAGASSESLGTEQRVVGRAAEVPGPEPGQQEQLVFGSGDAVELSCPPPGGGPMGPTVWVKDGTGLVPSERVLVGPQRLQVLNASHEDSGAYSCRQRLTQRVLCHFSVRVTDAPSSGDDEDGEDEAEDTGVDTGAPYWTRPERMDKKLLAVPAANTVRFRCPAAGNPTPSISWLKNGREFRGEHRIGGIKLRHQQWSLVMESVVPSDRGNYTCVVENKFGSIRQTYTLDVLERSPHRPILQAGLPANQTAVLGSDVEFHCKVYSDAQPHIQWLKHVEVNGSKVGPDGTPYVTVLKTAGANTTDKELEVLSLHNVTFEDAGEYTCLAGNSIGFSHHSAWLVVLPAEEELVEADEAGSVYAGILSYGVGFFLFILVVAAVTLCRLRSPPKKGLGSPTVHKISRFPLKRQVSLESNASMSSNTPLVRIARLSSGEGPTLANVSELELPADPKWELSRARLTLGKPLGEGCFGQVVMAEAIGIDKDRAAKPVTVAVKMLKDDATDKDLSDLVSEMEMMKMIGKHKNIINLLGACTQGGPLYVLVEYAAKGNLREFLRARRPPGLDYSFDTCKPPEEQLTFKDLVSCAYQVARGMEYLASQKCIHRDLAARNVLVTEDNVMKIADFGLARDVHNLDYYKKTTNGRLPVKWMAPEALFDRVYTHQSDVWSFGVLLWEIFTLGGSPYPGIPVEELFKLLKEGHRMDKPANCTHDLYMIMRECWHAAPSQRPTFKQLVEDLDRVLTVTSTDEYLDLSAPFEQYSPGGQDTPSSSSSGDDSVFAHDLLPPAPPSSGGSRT

[6] = tested on: Fer (mouse); assay: as above
[7] = molecular target: Fes (UniProt P07332); assay: as above
Chain of Fes (P07332 whole entry, looked up): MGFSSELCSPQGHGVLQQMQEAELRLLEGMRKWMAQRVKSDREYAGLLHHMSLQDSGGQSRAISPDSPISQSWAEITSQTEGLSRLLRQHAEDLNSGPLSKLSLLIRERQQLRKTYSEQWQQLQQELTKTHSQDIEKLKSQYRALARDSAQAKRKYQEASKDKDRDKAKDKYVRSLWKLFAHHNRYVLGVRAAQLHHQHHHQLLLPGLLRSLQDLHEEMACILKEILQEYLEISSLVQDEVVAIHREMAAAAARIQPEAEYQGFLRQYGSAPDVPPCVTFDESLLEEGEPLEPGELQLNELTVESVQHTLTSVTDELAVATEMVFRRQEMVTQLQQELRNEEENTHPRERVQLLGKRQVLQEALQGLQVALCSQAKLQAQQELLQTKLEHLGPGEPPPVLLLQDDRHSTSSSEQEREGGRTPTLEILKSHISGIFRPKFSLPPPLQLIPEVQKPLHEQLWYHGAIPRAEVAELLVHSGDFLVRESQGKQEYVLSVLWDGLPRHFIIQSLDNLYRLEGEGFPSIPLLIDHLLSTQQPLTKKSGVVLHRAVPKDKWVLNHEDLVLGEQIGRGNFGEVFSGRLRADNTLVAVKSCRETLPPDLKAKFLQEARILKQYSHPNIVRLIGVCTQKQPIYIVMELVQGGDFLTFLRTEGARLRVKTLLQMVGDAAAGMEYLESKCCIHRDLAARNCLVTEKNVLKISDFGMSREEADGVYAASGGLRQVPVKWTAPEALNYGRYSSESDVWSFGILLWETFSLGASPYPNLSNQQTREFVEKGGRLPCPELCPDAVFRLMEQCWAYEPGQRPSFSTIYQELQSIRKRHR

[8] = molecular target: Fyn (UniProt P06241); assay: as above
Chain of Fyn (P06241 whole entry, looked up): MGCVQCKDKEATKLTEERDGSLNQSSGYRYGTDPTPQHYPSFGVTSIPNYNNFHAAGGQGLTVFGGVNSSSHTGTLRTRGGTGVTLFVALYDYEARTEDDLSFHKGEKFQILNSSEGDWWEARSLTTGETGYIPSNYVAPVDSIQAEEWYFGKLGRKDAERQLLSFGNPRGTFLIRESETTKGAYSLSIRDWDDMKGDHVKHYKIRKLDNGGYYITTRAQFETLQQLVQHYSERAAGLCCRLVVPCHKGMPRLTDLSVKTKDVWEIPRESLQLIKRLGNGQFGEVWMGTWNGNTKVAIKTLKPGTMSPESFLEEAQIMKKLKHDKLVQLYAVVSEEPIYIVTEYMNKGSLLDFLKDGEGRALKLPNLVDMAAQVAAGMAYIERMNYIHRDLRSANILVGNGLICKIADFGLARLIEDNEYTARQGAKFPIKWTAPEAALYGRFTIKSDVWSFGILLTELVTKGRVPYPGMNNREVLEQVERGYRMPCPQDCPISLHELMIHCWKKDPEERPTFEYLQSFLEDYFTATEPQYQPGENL

[9] = molecular target: Hck (UniProt P08631); assay: as above
[10] = molecular target: Jak2 (UniProt O60674); assay: as above
[11] = molecular target: MERTK (UniProt Q12866); assay: as above
[12] = tested on: c-Abl (mouse); assay: as above
[13] = tested on: c-Src; assay: as above
[14] = molecular target: Grb2 SH2 (UniProt P62993); assay: SH2 binding enrichment of the phosphorylated peptide, bacterial display (enrichment ratio); higher = better substrate or ligand; peptides without Tyr show the background
[15] = molecular target: SHP2-C SH2; assay: as above
[16] = molecular target: c-Src SH2; assay: as above
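For SH2 binding enrichment of the phosphorylated peptide, bacterial display in this document: peptide library displayed on the E. coli surface as eCPX fusions, selected cells deep-sequenced, score is each peptide's frequency after selection divided by its frequency in the input.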
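For phosphorylation enrichment, bacterial display in this document: 11-residue human phosphosite peptides and single-mutation variants displayed on the E. coli surface, counted by deep sequencing, each peptide's frequency after selection divided by its frequency in the unselected input library; frequency after pTyr selection over input frequency; kinase dosed for 20-30% of maximal phosphorylation in three min.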

Chain of EPHB1 (P54762 whole entry, looked up): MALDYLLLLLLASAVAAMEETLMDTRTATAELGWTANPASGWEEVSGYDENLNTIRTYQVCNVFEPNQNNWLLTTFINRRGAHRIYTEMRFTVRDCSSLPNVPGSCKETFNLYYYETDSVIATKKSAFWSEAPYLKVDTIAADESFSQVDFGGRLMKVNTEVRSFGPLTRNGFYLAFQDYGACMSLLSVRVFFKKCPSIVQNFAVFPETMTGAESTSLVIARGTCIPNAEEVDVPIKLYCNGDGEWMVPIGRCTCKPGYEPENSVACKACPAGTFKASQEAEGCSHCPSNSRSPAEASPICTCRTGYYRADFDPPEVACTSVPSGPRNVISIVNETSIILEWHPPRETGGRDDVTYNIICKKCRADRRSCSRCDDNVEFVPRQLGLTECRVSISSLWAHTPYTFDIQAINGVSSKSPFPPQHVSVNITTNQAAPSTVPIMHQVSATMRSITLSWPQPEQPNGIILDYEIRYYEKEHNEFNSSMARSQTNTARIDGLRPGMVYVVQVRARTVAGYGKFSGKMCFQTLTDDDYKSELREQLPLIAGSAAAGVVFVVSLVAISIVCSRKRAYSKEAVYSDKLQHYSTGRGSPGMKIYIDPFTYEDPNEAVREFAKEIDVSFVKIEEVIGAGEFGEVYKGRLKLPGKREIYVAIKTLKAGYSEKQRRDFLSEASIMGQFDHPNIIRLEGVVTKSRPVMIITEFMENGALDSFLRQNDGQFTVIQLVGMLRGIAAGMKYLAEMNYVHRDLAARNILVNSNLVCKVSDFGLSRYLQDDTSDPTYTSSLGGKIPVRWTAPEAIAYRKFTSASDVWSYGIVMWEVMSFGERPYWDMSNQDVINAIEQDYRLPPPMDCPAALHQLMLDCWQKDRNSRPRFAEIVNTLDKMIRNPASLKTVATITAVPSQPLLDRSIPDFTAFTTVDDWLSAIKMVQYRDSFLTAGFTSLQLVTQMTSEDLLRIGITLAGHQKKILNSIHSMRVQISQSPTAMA

Sequence	SH2 binding enrichment [14]	SH2 binding enrichment [15]	SH2 binding enrichment [16]	phosphorylation enrichment [1]	phosphorylation enrichment [2]	phosphorylation enrichment [3]	phosphorylation enrichment [4]	phosphorylation enrichment [5]	phosphorylation enrichment [6]	phosphorylation enrichment [7]	phosphorylation enrichment [8]	phosphorylation enrichment [9]	phosphorylation enrichment [10]	phosphorylation enrichment [11]	phosphorylation enrichment [12]	phosphorylation enrichment [13]
ERQIRYLNHQL [CEP152_Y268]	0.842	0.683	0.512	0.557	0.373	0.354	0.412	0.39	0.347	0.527	0.396	0.4	0.413	0.382	0.523	0.399
ESMLRYDVFGG [STOX1_Y607_E608D_YF]	1.1	0.627	1.56	0.933	0.445	0.631	0.508	0.685	0.536	0.846	0.636	0.619	0.91	2.37	0.582	1.1
FAAAGYGSLEA [EPHA10_Y959]	0.926	0.701	0.515	0.86	0.403	0.485	0.507	0.535	0.487	0.844	0.443	0.436	0.675	0.469	0.747	1.14
FAKTQYPDVFA [CRX_Y63_YF]	0.803	0.544	0.486	0.876	0.469	0.45	0.454	0.525	0.388	0.74	0.364	0.483	0.724	0.38	0.478	0.351
FAKTQYPDVYA [CRX_Y63]	0.963	1	0.418	0.628	0.474	0.526	0.533	0.478	0.4	0.692	0.469	0.653	0.52	0.346	0.652	0.486
FEAMEYLESKQ [BTK_Y511_C506Y_YF]	0.641	0.635	0.484	1.24	0.534	0.682	0.527	0.993	0.543	1.36	0.499	0.567	1.17	0.474	0.966	0.427
FETSHYPASPD [CTNND2_Y1217_YF]	1.03	0.992	0.383	0.52	0.483	0.408	0.475	0.508	0.486	0.77	0.361	0.435	0.553	0.323	0.463	0.31
FGLQAYTKVKT [ALDH2_Y502_E504K_YF]	0.744	1.65	1.38	1.12	0.763	0.644	0.472	0.877	0.476	1.23	0.546	0.513	1.33	0.447	0.799	0.442
FIAVGYVDDTQ [HLA-A_Y51]	1.05	0.967	0.625	0.822	0.453	0.499	0.505	0.553	0.429	0.949	0.406	0.509	0.782	0.415	0.668	0.49
FKDGQYWIRGR [ACSF3_Y466]	0.825	0.359	0.46	0.78	0.317	0.369	0.361	0.482	0.387	0.862	0.448	0.614	0.671	0.379	0.491	0.501
FKDGQYWIRGW [ACSF3_Y466_R471W]	0.87	0.733	0.47	0.998	0.624	0.624	0.609	0.551	0.372	1.13	0.513	0.799	0.927	0.345	0.636	0.534
FKIFRYTLNDN [FN1_Y1975_L1974R_YF]	1.02	0.958	0.548	1.02	0.518	0.525	0.529	0.589	0.403	1.03	0.42	0.464	1.01	0.377	0.614	0.36
FLQTDDTSQVS [FRMPD1_Y846_Y846D]	0.798	0.66	0.457	1.05	0.632	0.648	0.445	0.645	0.49	1.12	0.481	0.587	0.99	0.622	1.07	0.476
FLTQHYDAIPQ [ANG_Y38_K41I]	0.809	0.927	13.9	0.885	0.715	0.51	0.639	0.866	9.86	0.855	0.586	2.88	0.608	2.46	0.611	0.678
FMGVEYSSCDT [EPHA3_Y937_T933M]	0.598	0.588	1.43	1.32	0.683	0.756	0.601	0.838	0.64	1.31	0.441	0.61	1.2	0.479	0.827	0.521

More lines, main results first:

SH2 binding enrichment [14]	SH2 binding enrichment [15]	SH2 binding enrichment [16]	Sequence	phosphorylation enrichment [1]	phosphorylation enrichment [2]	phosphorylation enrichment [3]	phosphorylation enrichment [4]	phosphorylation enrichment [5]	phosphorylation enrichment [6]	phosphorylation enrichment [7]	phosphorylation enrichment [8]	phosphorylation enrichment [9]	phosphorylation enrichment [10]	phosphorylation enrichment [11]	phosphorylation enrichment [12]	phosphorylation enrichment [13]
0.735	0.747	0.572	ESDFTYSSSFE [SRPK2_Y427_YF]	1.03	0.531	0.537	0.53	0.723	0.536	1.09	0.821	0.752	1.02	0.438	0.614	1.08
0.772	0.714	1	ETKKQYDSFTY [TMED3_Y85]	0.735	0.397	0.493	0.5	0.581	0.542	0.828	0.531	0.54	0.656	0.524	0.639	0.604
0.753	1.07	0.528	EVDGLYREAPI [MYL12B_Y143_E141G]	0.879	0.503	0.527	0.629	0.718	0.504	0.976	0.488	0.536	0.83	0.443	0.662	0.482
0.852	0.681	0.549	FADIAYNYRHA [PAH_Y166_G171A]	0.578	0.593	0.437	0.322	0.542	0.424	0.779	0.425	0.415	0.648	0.466	0.474	0.503
0.805	0.566	0.435	FDDIAHIRKTL [PIK3CA_Y1021_Y1021H]	0.688	0.51	0.529	0.529	0.515	0.433	0.844	0.538	0.553	0.854	0.416	0.611	0.389
0.51	0.613	0.264	FFRKFYNKSED [RYR1_Y4864]	0.794	0.386	0.57	0.484	0.562	0.353	0.718	0.458	0.41	0.622	0.424	0.421	0.388
0.563	0.629	1.79	FFRNVYHLASV [RBL1_Y796_K794N_YF]	0.803	0.509	0.515	0.486	0.532	0.403	0.763	1.25	0.596	0.575	0.404	0.51	0.862
1.01	0.849	0.942	FGLDRYQCDCT [PTGS1_Y54]	1.1	0.625	0.613	0.587	0.861	0.492	1.23	0.524	0.499	0.874	0.454	0.796	0.422
0.768	0.725	0.481	FHKALYTVRTY [PDE6C_Y266_S270T]	0.964	0.774	0.645	0.655	0.774	0.542	1.26	0.599	0.725	1.16	0.519	0.964	0.596
0.779	1.1	0.736	FITVGYVDDTQ [HLA-B_Y51_S48T]	0.999	0.681	0.611	0.658	0.741	0.528	1.21	0.529	0.517	0.877	0.482	0.898	0.432
0.835	0.888	0.57	FLAATYPTVGQ [NF1_Y2508_YF]	0.548	0.444	0.494	0.357	0.523	0.593	0.634	0.435	0.518	0.404	0.396	0.401	0.426
1.08	0.934	0.569	FLEEEYVKAVG [TF_Y674_G671E_YF]	1.19	0.59	0.67	0.517	0.721	0.49	1.16	0.558	0.517	1.18	0.424	0.679	0.528
0.848	0.749	0.413	FLKDVYVDSKD [NDUFAF4_Y69]	1.11	0.459	0.512	0.488	0.731	0.557	0.983	0.48	0.707	0.855	0.471	0.66	0.471
0.885	1.62	5.53	FLRTGYSVPFG [TGM1_Y370_YF]	0.875	0.523	0.515	0.504	0.632	0.466	0.955	0.729	0.461	0.929	0.561	0.945	0.53
